The target in the experiment is purified RSV F glycoprotein (respiratory syncytial virus). Put plainly: ELISA on purified F glycoprotein, control Fab. The note with it: scale: reciprocal dilution.
Chain of purified RSV F glycoprotein (respiratory syncytial virus) (P12568 26-109, chain 1 of 2): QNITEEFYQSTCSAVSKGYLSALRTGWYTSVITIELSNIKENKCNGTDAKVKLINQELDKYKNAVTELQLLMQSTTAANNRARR
Chain of purified RSV F glycoprotein (respiratory syncytial virus) (P12568 137-574, chain 2 of 2): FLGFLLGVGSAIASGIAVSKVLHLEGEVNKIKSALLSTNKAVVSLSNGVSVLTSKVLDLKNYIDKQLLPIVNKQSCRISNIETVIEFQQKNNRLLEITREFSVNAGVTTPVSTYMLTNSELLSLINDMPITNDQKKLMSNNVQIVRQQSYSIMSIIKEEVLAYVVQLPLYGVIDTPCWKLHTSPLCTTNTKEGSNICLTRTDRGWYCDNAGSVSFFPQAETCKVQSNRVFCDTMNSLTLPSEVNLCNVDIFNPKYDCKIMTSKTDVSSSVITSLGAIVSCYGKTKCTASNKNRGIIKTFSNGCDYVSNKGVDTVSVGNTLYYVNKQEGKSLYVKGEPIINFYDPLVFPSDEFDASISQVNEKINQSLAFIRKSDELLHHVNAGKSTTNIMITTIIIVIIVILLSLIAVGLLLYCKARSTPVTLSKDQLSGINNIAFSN

Take hepatitis B Fab: the ELISA titer is 2.

The values above are taken from patent US20040005324A1.
